The source of these data is publication PMC9907207 (Nature Communications, 2023).

What all share (details): both partners purified
Test [1] has as its target T1, SARS-CoV-2 RBD (residues 319-541), ancestral strain (SARS-CoV-2, UniProt P0DTC2).
T1 construct: source: Expi293, purified (Talon resin)
The test is described as follows: BLI. For orientation: In BLI a coated tip is dipped into the sample, and binding shifts an interference pattern.

Test [2] has as its target T2, C-terminally His-tagged SARS-CoV-2 RBD (residues 333-528) (SARS-CoV-2, UniProt P0DTC2).
T2 construct: source: expressed and purified as for the other RBDs (Expi293, Talon resin)
The test is described as follows: crystal structure.

The target in another test is SARS-CoV-1 RBD (SARS-CoV (SARS-CoV-1), isolate not …, UniProt P59594). Briefly: BLI.
In another test the target is bat RaTG12-CoV RBD (Bat coronavirus RaTG13 (printed as …, UniProt A0ABF7PLN6)). The test is described as follows: BLI.

B1: S2H97, class 5 monoclonal antibody (antibody, V domains shown)
VH: QVRLVQSGAEVKKSGESLKISCKGSGYSFTSYWIGWVRQMPGKGLEWMGIIYPGDSDTRYSPSFQGQVTISADKSISTVYLQWSSLKASDTAMYYCARQWSHYTYDYYYWGQGTLVTISS
VL: QSVLTQPASVSGSPGQSITISCTGISSDVGGYNSVSWYQQHPGKAPKLMIYDVTNRPSGVSNRFSGSKSGNTASLTISGLQAEDEADYYCSSYTSSSTPPYVFGTGTKVSVL
As to B1, in test [1], the binding result is given as “binds”.

B2: GAR03 Fab (Fab, V domains shown)
VH: QVQLVQSGAEVKKPGASVKVSCKASGYTFSSYDINWVRQAPGQGLEWMGWMSPNSGNTGYAQKFQGRVTMTRSTSMSTAYMELSSLRSEDTAVYFCARMSSSLTNYLDYWGQGTLVTVSS
VL: SYVLTQPPSVAVAPGQTARIRCGENDIGSKNVHWYQQKSGQAPVLVVYDDSDRPSGIPERFSGSNSGNTATLTISRVEAGDEADYYCQVWDSTGDHPDVVFGGGTKLTVL
notes: also called GAR03 antibody Fab; source: ExpiCHO, purified (Talon resin, S200 SEC)
With B2, in test [2], the binding result is on record as “binds”.

B3: GAR03, human IgG1 monoclonal antibody (antibody, V domains shown)
VH: B2 VH
VL: B2 VL
notes: source: ExpiCHO, purified (Protein G resin)
Regarding B3, the binding result (in test [1]; with SARS-CoV-1 RBD; with bat RaTG12-CoV RBD) was “binds” in each case.

B4: GAR12 Fab (Fab, V domains shown)
VH: EVQLVQSGGGLVQPGGSLRLSCAASGFTFSSYAMSWVRQAPGKGLEWVLSISGSGGSTYYADSVKGRFTISIDNSKKTVYLQMNSLRAEDTAVYYCAKSGEQQLVQAEYFHHWGQGTLVTVSS
VL: DIQMTQSPSTLSASVGDRVTITCRASQSIGRWLAWYQQKPGKAPKLLIYDASSLESGVPSRFSGSGFGTEFTLTISSLQPDDFATYYCQQCDSLLTFGGGTKLEIK
notes: also called GAR12 Fab fragment; source: ExpiCHO, purified (Talon resin, S200 SEC)
For B4, in test [2], the binding result was “binds”.

B5: GAR12, human IgG1 monoclonal antibody (antibody, V domains shown)
VH: B4 VH
VL: B4 VL
notes: as for B3
As for B5, the binding result in test [1] is given as “binds”.

B6: 10G4 Fab (Fab, V domains shown)
VH: QVQLVESGGGVVQPGRSLRLSCAASGFTFSSYGMHWVRQAPGKGLEWVAVIWYDGSDKYYADSVKGRFTISRDNSKNTLYLQINSLRAEDTAMYYCAREATAGFDYWGQGNLVTVSS
VL: NIQMTQSPSAMSASVGDRVTITCRARQDISSYLAWFQQKPGKVPKHLIYAASTLLSGVPSRFSGSGSGTEFTLTISSLQPEDFATYYCLQHNSYPYTFGQGTKLEIN
notes: also called additional antibody Fab (10G4)
In the case of B6, the binding result in test [2] is on record as “binds”.
